Laboratory results published in PMC5422739.

Columns and labels:
[1] = target: HTE20N (the first 27 residues of HTE20, amino acids 358–384 of HTE) (human) (UniProt P15502); assay: ELISA; HTE17-20, HTE20, HTE20N, HTE20C or BSA coated (1 μM/well); GST tagged LigB4 or LigB12 titrated 0 to 10 μM, 1 h at 37°C; HRP anti-GST; KD from a saturation fit of OD630
[2] = target: HTE17-20 (17th to 20th exon of human tropoelastin) (human); assay: ELISA; HTE truncates, HTE20 mutants or BSA coated (1 μM/well, 0.1 M NaHCO3 pH 9.4), blocked with 3% BSA in PBS; 5 μM GST tagged LigB4 or LigB12 applied 1 h at 37°C; HRP anti-GST; fold over BSA or percent of wild-type HTE20
[3] = target: HTE19-20 (19th to 20th exon of human tropoelastin) (human); assay: as above
[4] = target: HTE18 (18th exon of human tropoelastin) (human); assay: as above
[5] = target: HTE20 mutant R360A (human) (UniProt P15502); assay: as above
[6] = target: HTE20 mutant F381A (human) (UniProt P15502); assay: as above
[7] = target: HTE20 (20th exon of human tropoelastin) (human) (UniProt P15502); assay: as above
[8] = target: HTE20 mutant Y371A (human) (UniProt P15502); assay: as above
[9] = target: HTE20 mutant F378A (human) (UniProt P15502); assay: as above
[10] = target: HTE25-27 (25th to 27th exon of human tropoelastin) (human); assay: as above
[11] = target: LigA on the surface of L. biflexa serovar Patoc ligA
[12] = target: tag free LigB12 (amino acids 1,047–1,119 in LigB) (L. interrogans serovar Pomona); assay: SPR; Biacore 3000; tag free LigB12 immobilised on CM5 (about 1,000 RU); HTE truncates 0 to 5 μM injected in PBS at 30 μL/min, 25°C; 1:1 Langmuir model
[13] = target: LigB12-12-5 chimera (L. interrogans serovar Pomona); assay: ELISA; tag-free LigB5/LigB12 and LigB7/LigB10 chimeras and wild-type domains coated (1 μM/well); 5 μM histidine tagged HTE17-20, HTE20 or HTE20N applied; anti-His detection
[14] = target: LigB12-5-12 chimera (L. interrogans serovar Pomona); assay: as above
histidine tagged HTE20N = histidine tagged HTE20N (UniProt P15502); assay: ELISA; conditions: 10 µM His-HTE20N applied to wells coated with LigB12 construct (1 µM/well); detected by anti-His antibodies; parent: est. 1.05; read off a plot
histidine tagged HTE20 = histidine tagged HTE20 (UniProt P15502); assay: ELISA; conditions: 10 µM His-HTE20 applied to wells coated with LigB12 construct (1 µM/well); detected by anti-His antibodies; parent: est. 0.73; read off a plot
Sequence of histidine tagged HTE20 (P15502 whole entry, looked up): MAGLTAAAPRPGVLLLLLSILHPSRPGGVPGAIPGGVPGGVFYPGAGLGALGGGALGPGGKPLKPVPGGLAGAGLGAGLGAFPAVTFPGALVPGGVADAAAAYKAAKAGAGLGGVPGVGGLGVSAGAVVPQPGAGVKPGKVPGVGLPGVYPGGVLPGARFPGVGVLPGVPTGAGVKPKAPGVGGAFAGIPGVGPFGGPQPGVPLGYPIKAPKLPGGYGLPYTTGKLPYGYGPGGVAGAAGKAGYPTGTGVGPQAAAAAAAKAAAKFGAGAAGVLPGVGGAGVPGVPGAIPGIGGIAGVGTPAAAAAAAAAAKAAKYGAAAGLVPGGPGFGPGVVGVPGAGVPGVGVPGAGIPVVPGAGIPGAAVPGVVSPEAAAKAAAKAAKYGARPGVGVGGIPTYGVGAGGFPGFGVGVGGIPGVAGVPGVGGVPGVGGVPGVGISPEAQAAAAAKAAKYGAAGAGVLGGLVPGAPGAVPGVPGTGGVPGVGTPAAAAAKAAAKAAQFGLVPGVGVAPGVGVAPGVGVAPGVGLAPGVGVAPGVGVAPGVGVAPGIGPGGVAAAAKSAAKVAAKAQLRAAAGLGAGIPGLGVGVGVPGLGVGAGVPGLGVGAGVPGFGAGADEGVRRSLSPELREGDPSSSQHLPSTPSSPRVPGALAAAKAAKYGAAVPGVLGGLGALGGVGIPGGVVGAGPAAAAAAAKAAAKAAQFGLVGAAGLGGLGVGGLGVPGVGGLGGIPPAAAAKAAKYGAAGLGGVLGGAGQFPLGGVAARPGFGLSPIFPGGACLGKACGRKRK

Sequence of HTE20N (the first 27 residues of HTE20, amino acids 358–384 of HTE) (human) (P15502 358-384): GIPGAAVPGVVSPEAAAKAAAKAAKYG
Sequence of HTE20 (20th exon of human tropoelastin) (human) (P15502 358-412): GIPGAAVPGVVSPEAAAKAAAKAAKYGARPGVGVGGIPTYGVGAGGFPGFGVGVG
Sequence of HTE17-20 (17th to 20th exon of human tropoelastin) (human) (P15502 297-438): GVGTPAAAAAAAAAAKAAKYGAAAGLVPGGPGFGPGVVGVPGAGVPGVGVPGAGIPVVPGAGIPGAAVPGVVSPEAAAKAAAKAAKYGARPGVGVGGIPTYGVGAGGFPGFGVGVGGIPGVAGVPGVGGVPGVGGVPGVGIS
Sequence of histidine tagged HTE20N (P15502 whole entry, looked up): as the sequence (P15502 whole entry, looked up) above

GST tagged LigB4 (amino acids 307–403 in LigB) (domain or fragment)
Kd [1]: 860 nM
fold binding over BSA (negative control) [2]: 5.7 fold
fold binding over BSA (negative control) [3]: 4.5 fold
fold binding over BSA (negative control) [4]: 2 fold
percent of wild-type HTE20 binding [5]: 32%
percent decrease of binding against wild-type HTE20 [6]: 54%
fold binding over BSA (negative control) [7]: 4.4 fold
percent decrease of binding against wild-type HTE20 [8]: 61%
percent of wild-type HTE20 binding [9]: 35%

GST tagged LigB12 (amino acids 1,047–1,119 in LigB) (domain or fragment)
Kd [1]: 860 nM
fold binding over BSA (negative control) [2]: 5.7 fold
fold binding over BSA (negative control) [3]: 4.5 fold
fold binding over BSA (negative control) [4]: 2 fold
fold binding over BSA (negative control) [10]: 3 fold
percent decrease of binding against wild-type HTE20 [5]: 54%
percent of wild-type HTE20 binding [6]: 35%
fold binding over BSA (negative control) [7]: 4.4 fold
percent of wild-type HTE20 binding [8]: 35%
percent decrease of binding against wild-type HTE20 [9]: 62%

HTE17-20 (17th to 20th exon of human tropoelastin) (domain or fragment)
inhibition of the adhesion of LigA-expressing L. biflexa (Patoc ligA) to WI-38 cells after pre-incubation with HTE17-20, 10 to 0.156 μM; ELISA with hamster anti-L. biflexa sera [11]: 61%

HTE19-20 (19th to 20th exon of human tropoelastin) (domain or fragment)
Kd [12]: 1340 nM
koff [12]: 0.0043 s⁻¹
kon [12]: 3100 M⁻¹ s⁻¹

histidine tagged HTE17-20 (domain or fragment)
percent of wild-type LigB12 binding [13]: 90%
percent of wild-type LigB12 binding [14]: 80%

tag free LigB12 (amino acids 1,047–1,119 in LigB) A1065K
response (histidine tagged HTE20N): 0.09 OD630
response (histidine tagged HTE20): 0.11 OD630
